Biological target: T1, EGFR501Fcflag (ErbB1501.Fc fusion protein homodimer) (human, UniProt P00533 25-525)
T1 construct: Captured from 293T supernatant on protein G coated wells; also called truncated form of the extracellular domain of the EGF receptor, expressed as an Fc fusion homodimer; not shown: spacer peptide N-terminal of the Fc; human IgG1 Fc region (from a genomic fragment)
Experiment: Eu-EGF displacement by unlabelled EGF from the Fc fusion homodimer captured on protein G; the reference value is from the literature
Description: Ligand binding assays. The wells of a 96-well Lumitrac 600 plate (Greiner) were coated with protein G (2 ug/ml in 10 mM sodium citrate buffer, pH 9.6; Sigma). […] After incubation at room temperature, wells were aspirated, washed in TBS plus 0.05% Tween-20, and Enhancement Solution (Perkin-Elmer) added to each well for 20 minutes.

- fold higher affinity than that reported for the full-length ErbB1 ectodomain-Fc fusion protein: 10 fold
B1: EGF (species not stated) (ligand)
chain: NSYPGCPSSYDGYCLNGGVCMHIESLDSYTCNCVIGYSGDRCQTRDLRWWELR
modifications: In the FIG. 8 assay the trace is EGF mono-labelled with a europium chelate (Wallac); site not stated. The EGF in the ultracentrifuge is unlabelled.
notes: Kept apart from hEGF and mEGF because these experiments say only EGF; the two experiments may have used different EGF; also called unlabelled EGF; Eu-EGF (Wallac)

Source: patent US20060234343A1 (published 2006)
